{"source": "patent US20240343789A1", "about": "(published 2024)", "assay_in_all_cases": "ECL ELISA titration", "key": {"[1]": {"biological_target": "T1, IGFR-L1 protein (Endosome/lysosome-associated apoptosis and autophagy regulator 1, ELAPOR1) (UniProt Q6UXG2 42-1013)", "T1 chain": "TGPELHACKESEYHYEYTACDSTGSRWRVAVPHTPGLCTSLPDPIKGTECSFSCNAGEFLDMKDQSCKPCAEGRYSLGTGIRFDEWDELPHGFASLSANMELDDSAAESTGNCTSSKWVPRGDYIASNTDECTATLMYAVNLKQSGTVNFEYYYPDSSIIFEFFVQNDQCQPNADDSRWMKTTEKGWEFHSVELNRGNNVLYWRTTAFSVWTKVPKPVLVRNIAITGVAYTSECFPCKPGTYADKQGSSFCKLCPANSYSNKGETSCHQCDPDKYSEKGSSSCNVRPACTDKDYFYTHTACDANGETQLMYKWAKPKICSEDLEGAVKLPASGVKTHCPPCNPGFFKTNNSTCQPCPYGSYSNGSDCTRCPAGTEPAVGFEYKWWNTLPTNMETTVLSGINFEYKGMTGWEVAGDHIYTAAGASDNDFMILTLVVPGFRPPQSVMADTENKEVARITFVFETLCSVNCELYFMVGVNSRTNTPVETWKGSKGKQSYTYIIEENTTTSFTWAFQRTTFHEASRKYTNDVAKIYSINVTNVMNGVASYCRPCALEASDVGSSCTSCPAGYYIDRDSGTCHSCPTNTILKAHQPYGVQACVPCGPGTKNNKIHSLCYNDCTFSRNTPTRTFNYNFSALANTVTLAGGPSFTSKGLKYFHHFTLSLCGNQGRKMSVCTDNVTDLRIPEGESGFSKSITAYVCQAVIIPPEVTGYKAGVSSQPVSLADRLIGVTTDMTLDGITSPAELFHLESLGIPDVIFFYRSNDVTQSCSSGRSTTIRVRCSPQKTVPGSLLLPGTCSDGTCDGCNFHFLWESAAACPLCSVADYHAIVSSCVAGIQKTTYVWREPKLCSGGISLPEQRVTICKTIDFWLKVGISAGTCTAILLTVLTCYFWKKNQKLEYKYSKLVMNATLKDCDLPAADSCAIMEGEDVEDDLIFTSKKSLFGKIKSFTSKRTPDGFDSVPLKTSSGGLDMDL"}, "[2]": {"biological_target": "T1, IGFR-L1 protein …"}, "[3]": {"biological_target": "T1, IGFR-L1 protein …"}, "[4]": {"biological_target": "T1, IGFR-L1 protein …"}, "[5]": {"biological_target": "T1, IGFR-L1 protein …"}, "[6]": {"biological_target": "T1, IGFR-L1 protein …"}}, "note": "Read-outs that look alike come from different tables or passages of the source.", "data": [{"binder": "AB-4 (antibody, V domains shown) VH: EVQLVESGGGFVRPGKSLKLSCSASGFTFNTYGMHWIRQAPGKGLDWVSYISSSSATAYADAVKGRFTISRDNAKNTLYLQLNSLRSEDTAIYHCAREATYYGYPRYYFDYWGQGVMVTVSS VL: DIQMTQSPSSMSVSLGDRVTFTCRASQDIGNYLSWYQQKPEKSPRLMIYTATDLEDGVPSRFSGSRSGSDYSLTINSLESEDRGIYFCLQHKQYPYTFGSGTKLELKR", "values": [{"measurement": "Kd", "setting": "[1]", "value": 2.76, "unit": "nM"}]}, {"binder": "AB-5 (antibody, V domains shown) VH: EVQLVESGGGLVQPGRSLKLSCAAPGFTFSASDMAWVRQAPTKGLEWVASISPSGDSTYYRDSILGRFTVSRDNAKSSLYLQMDSLRSEDTATYYCARHLGLGPFDHWGQGVMVTVSS VL: DIQMTQSPSLLSASVGDRVTLSCKAGRDINNYLAWYQQKLGEAPKLLIYNANFLQTGIPSRFSGSGSGTDYTLTISSLQPEDVATYFCQQFNTWTGTFGGGTKLELKR", "values": [{"measurement": "Kd", "setting": "[2]", "value": 4.78, "unit": "nM"}]}, {"binder": "AB-10 (antibody, V domains shown) VH: GVQLVESGGGLVQSGRSIKVSCEASGFTFSNFYMAWVRQAPTKGLEWVASISSGGGNTHYRDSVRGRFTISRNNAKSTLYLQMDSLNSEDTATYYCARDPGGGSPYWYLDFWGPGTMVTVSS VL: DIVLTQSPALAVSLGQRATISCRANQNVDFYDNTYLHWYQQKPGQQPKLLIYLASNLASGIPARFSGGGSGTDFTLTIDPVEADDTATYYCQQSRNLPNTFGAGTKLELKR", "values": [{"measurement": "Kd", "setting": "[3]", "value": 1.01, "unit": "nM"}]}, {"binder": "AB-2 (antibody, V domains shown) VH: EVQLVESDGGFVQPGRSLTLSCAASGFTFSDYYMSWVRQAPTKGLEWVATIGYDVSYTNYRDSVKGRFTISRDNAKSILSLQMDSLRSEDTATYYCARHPSYFDYWGQGVMVTVSS VL: DIVMTQSPSSLAVSAGETVTINCKSSQSLFYSENQKNYLAWLQQKPGQSPKLLITWASTRQSGVPDRFIGSGSGTDFTLTISSVQAEDLAIYHCQQYYDTPRTFGGGTQLELKR", "values": [{"measurement": "Kd", "setting": "[4]", "value": 2.22, "unit": "nM"}]}, {"binder": "AB-12 (antibody, V domains shown) VH: EVKLLESGGGLVQPGGSMRLSCAASGFTFTDFYMNWIRQPAGKAPEWLGFIRNKANGYTTEYTPSVKGRFTISRDDTQNMLYLQMNTLRAEDTATYYCARHYYDGSYYYWYFDFWGPGTMVTVSS VL: DVVLTQTPVAQPVTLGDQVSISCRSSQSLVKSNGNTYLEWFLQKPGQSPQLLIYKVSNRFSGVPDRFIGSGSGSDFTLKISRVEPEDLGVYYCFQAAHDPRTFGGGTKLELKR", "values": [{"measurement": "Kd", "setting": "[5]", "value": 2.79, "unit": "nM"}]}, {"binder": "AB-9 (antibody, V domains shown) VH: EVQLVESGGGLVQPTGSVKLSCAASGFIFTNYGMAWVRQAPKKGLEWVAYISYDGGSTYFRDSVRGRFTISRDNAKSTLYLHMDSLRSEDTATYYCTTPRLDTWGQGVMVTVSS VL: DIQMTQSPSSLSASLGDRVTITCRPSQDIGNHLSWFQQKPGKSPRLMTYGATILEDGVPSRFSGSRSRSDYSLTISSLESEDTAIYYCLQYDKYPRTFGGGTKVELKR", "values": [{"measurement": "Kd", "setting": "[3]", "value": 2.95, "unit": "nM"}]}, {"binder": "AB-3 (antibody, V domains shown) VH: EVQLLESGGGLVQPGGSLSLSCAASGFTFTDFYMNWIRQPAGKAPEWLAFARNKANGYTTDYNPSVKGRFAISRDNTQNMFYLHMNTLRPEDTATYYCARGRPSDYWGQGVMVTVSS VL: DIVMTQSPSSLAVSTGETVTMDCKSSQNLFYSGNQRNYLAWYQQKPGQSPTLLIYWASTRRSGVPDRFIGSGSGTDFTLTISSVQAEDLALYYCQQYDDPPYTFGAGTKLELKR", "values": [{"measurement": "Kd", "setting": "[1]", "value": 2.75, "unit": "nM"}]}, {"binder": "AB-1 (antibody, V domains shown) VH: EIQLQESGPGLVKPSQSLSLTCSVTDYTITSGFGWSWIRKFPGNKLEWMGYISYSGSTNYNPSLKSRLSLTRDTTKNQFFLQLISVTPEDTATYYCARSPLYGSNRYVVDAWGQGASVTVSS VL: DVQMTQSPSILTASPGESVSINCKASKSISNYLAWYQQKPGKSINLLIYSGSTLQSGTPSRFSGSGSGTDFTLTIRNLDPEDFGRYYCQQHNENPYTFGPGTRLELKR", "values": [{"measurement": "Kd", "setting": "[4]", "value": 2.8, "unit": "nM"}]}, {"binder": "AB-11 (antibody, V domains shown) VH: EVQLVESDGGFVQPGRSLKLSCAASGFTFSDYYMSWVRQAPTKGLEWVATIGYDGTYTNYRDSVKGRFTISRDNARSILYLQMDSLRSEDTATYYCARHPSYFDHWGQGVMVTVSS VL: DIVMTQSPSSLAVSAGETVTINCKSSQSLLYSENQKNYLAWFQQRPGQSPKLLINWASTRQSGVPDRFIGSGSGTDFTLTISSVQAEDLATYHCQQYYDTPRTFGGGSKLELKR", "values": [{"measurement": "Kd", "setting": "[5]", "value": 2.81, "unit": "nM"}]}, {"binder": "AB-8 (antibody, V domains shown) VH: QVQLQQSGAELAKPGSSVKISCKASGYTFTSYFISWIKQTTGQDLEYIGYINTGSGGTNYNEKFKGKATLTVDRSSSTAFMQLSSLTPDDSAVYYCARELRRVRGWFAYWGQGTLVTVSS VL: DTQMTQSPASLFASLGETVTIQCQASEDISSGLAWYQQKPGKSPHLLIYGANSLQDGVPSRFSGSGSGTQYSLKITNMQADDEGVYFCQQGLKYPFTFGSGTKLEIKR", "values": [{"measurement": "Kd", "setting": "[6]", "value": 2.74, "unit": "nM"}]}, {"binder": "AB-7 (antibody, V domains shown) VH: QVKLLQSGAALVKPGDSVKMSCKASGYSFTDYSIHWVKQSHGKSLEWIGYINPYSGGTTYNEKFKRKATLTVDKSSSTAYMEFSRLTSEDSAIYYCAREGMGITLYVMDAWGQGASVTVSS VL: DIVLTQSPALAVSLGQRATVSCKASQTVTISRYHLLHWYQQKPGQQPTLLIYRASNLASGIPARFSGSGSGTDFTLTINPVQADDLASYYCQQSWGSPWTFGGGTKLELKR", "values": [{"measurement": "Kd", "setting": "[6]", "value": 1.44, "unit": "nM"}]}, {"binder": "AB-6 (antibody, V domains shown) VH: EVQLVESDGGLVQPGRSLKLSCAASGFSFSDYYMAWLRQAPTKGLEWVATISHDGTGTYFRDSVKGRFTISRDNVKSTLYLQLDSLRSEDTATYYCARHKDGGYKDYWGQGVMVTVSS VL: DIKMTQSPSPLSASLGERVTISCRASDNIDNYLSWYQKKEDGSVRLLIYHTSRLQPGAPSRFSGSGSGKDYSLTISGLESEDIATYYCQQTYTPYTFGAGTKLELRR", "values": [{"measurement": "Kd", "setting": "[2]", "value": 5.27, "unit": "nM"}]}]}
